Measured values from the supplement of paper PMC10567573.

B1: SMOC2 (parent)
chain: PALETQPQGDEEDIASRYPTLWTE
B2: TSN (parent)
chain: FVELQGFLAAEQDIREEIRKVVQS

Variants of: B1
Experiment: protein stability index of a GFP-peptide fusion (GPS, HEK-293T) (PSI 1-6); higher = more stable
Conditions: c terminus: a fixed tail appended
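Further: lentivirally expressed fusions sorted by FACS into six bins by GFP to DsRed ratio, PSI derived from sequencing read proportions per bin multiplied by bin number.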

Variant	protein stability index
T20I	3.3
T20N	4.27
T20F	4.6
T20H	4.87
T20Q	3.83
T20V	3.99
T20E	4.41
T20L	4.66
T20R	3.88
T20W	4.67
T20D	5.59
T20P	4.78
T20C	3.77
T20M	4.4
T20A	4.31
T20G	4.41
T20K	4.37
T20Y	4.1
R17P	4.53
R17T	4.29
R17W	4.2
R17Q	4.78
R17V	4.36

Variant	protein stability index
R17Y	3.69
R17S	4.26
L21S	4.75
L21A	5.65
L21E	5.39
L21N	5.73
L21H	5.91
L21C	4.64
L21D	5.72
L21F	4.27
L21K	5.12
L21V	4.75
L21P	5.64
L21M	5.37
L21I	5.53
L21Q	5.66
L21R	4.91
L21T	3.98
L21Y	3.92
L21W	5.13
W22F	5.71
W22Q	5.51
W22K	5.3

Variant	protein stability index
W22Y	4.73
W22A	5.45
W22D	5.62
W22I	5.58
W22T	5.67
W22C	5.32
W22S	5.77
W22R	5.39
W22H	5.48
W22P	5.92
W22G	4.47
W22N	5.8
W22L	5.78
W22E	5.2
W22V	5.9
W22M	5.49
E24H	4.47
E24M	3.94
E24Q	4.82
E24K	5.17
E24I	3.97
E24A	4.67
E24L	4.19

Variant	protein stability index
E24V	4.22
E24Y	4.41
E24F	4.17
E24G	5.22
E24T	4.65
E24R	4.81
E24N	3.73
E24C	4.22
E24P	5.1
E24D	4.68
E24W	4.17
E24S	4.78
Y18D	5.89
Y18T	4.67
Y18Q	4.39
Y18C	4.32
Y18W	4.6
Y18L	4.42
Y18A	4.64
Y18R	4.53
Y18E	4.74
Y18N	4.24
Y18H	4.87

Variant	protein stability index
Y18G	4.61
Y18K	3.34
Y18F	4.25
Y18S	4.65
Y18M	4.59
Y18I	4.18
Y18V	4.07
Y18P	4.14
P19G	4.87
P19M	4.32
P19N	4.72
P19C	5.15
P19D	4.97
P19F	4.87
P19K	4.32
P19S	4.6
P19I	4.24
P19H	4.18
P19Y	4.45
P19R	4.2
P19E	5.49
P19A	5.73
P19T	4.53

Variant	protein stability index
P19Q	5.13
P19V	5.11
P19L	4.87
T23Q	4.43
T23L	5.29
T23S	5.28
T23R	5.13
T23K	4.58
T23I	4.28
T23C	5.02
T23F	5.22
T23A	4.21
T23Y	5.37
T23W	5.08
T23N	5.66
T23D	5.55
T23M	5.08
T23V	2.74
T23E	5.39
T23P	5.28
T23H	5.75

Variants of: B2
Experiment: as above
Conditions: c terminus: a fixed tail appended

Variant	protein stability index
Q5W	1
Q5D	1.23
Q5A	1.58
Q5K	2.12
Q5V	2.38
Q5C	5.07
D13F	1.85
D13M	2.91
D13H	2.78
D13N	3.27
D13S	1.52
D13A	3.62
E11D	1.39
E11W	3.13
E11I	1.86
E11F	1.29
E11N	2.16
E11C	1.92
E11A	1.05
E11L	2.02
E11K	2.13
E11Y	2.09
E11R	2.52
E16S	1.18
E16H	1.34

Variant	protein stability index
E16R	2.3
E16T	1.14
E16L	1.76
E16D	3.34
R19G	3
R19A	2.44
R19Y	1.46
R19I	1.78
R19T	2.25
R19D	1.6
R19V	1.97
R19N	2.38
R19C	2.32
R19Q	3.16
R19K	2.67
R19S	3.87
E3F	1.6
E3C	2.23
E3K	1.4
E3R	1.25
E3N	2.45
E3H	2.9
E3Y	1.64
E3M	2.97
E3T	2.59

Variant	protein stability index
E3S	2.08
E3P	1.53
E3Q	2.4
E3W	1.75
R15E	2.06
R15N	1.03
R15H	1.91
R15D	1.26
R15S	1.98
R15G	1.41
R15W	1.39
R15M	1.83
R15Y	1.76
R15L	2.35
R15C	1.82
I14E	3.21
I14Y	1.23
I14D	1.4
I14A	2.73
I14W	2.36
I14T	2.01
I14R	1.64
A9P	1.02
A9G	1.62
A9N	2.25

Variant	protein stability index
A9E	2.47
A9M	1.78
A9I	2.48
A9W	3.23
A9Q	1.63
A9R	1.93
A9K	1.73
A9L	1.57
Q12V	2.6
Q12C	1.92
Q12P	1.39
Q12R	3.99
Q12A	3.3
Q12K	2.24
Q12M	2.17
Q12E	3.62
A10I	2.04
A10D	1.35
A10M	2.2
A10H	1.74
A10C	1.04
A10K	1.62
A10R	1.8
A10F	2.15
A10E	4.05

Variant	protein stability index
K20M	1.89
K20L	1.83
K20G	1.7
K20A	2.27
K20C	2.75
K20P	2.1
K20H	1.94
K20I	3.91
E17V	2.91
E17G	2.42
E17M	2.49
E17H	2.3
E17Y	1.93
E17L	2.69
E17R	1.48
L8K	1.72
L8N	2.31
L8S	1.47
L8P	2.99
L8Q	1.37
L8M	2.07
L8Y	1.8
L8R	3.58
L8D	2.68
L8G	1.07

Variant	protein stability index
L8E	2.44
L8C	1.83
G6C	1.56
G6T	2.32
G6I	2.19
G6F	1.68
G6S	1.85
G6N	2.42
G6M	2.16
G6E	2.06
F7M	2.01
F7A	1.64
F7N	2.71
F7H	2.14
F7T	2
F7K	1.31
F7D	2.84
F7V	2.04
F7C	2.68
F7G	2.33
F7E	3.11
F7Y	1.33
F7R	2.04
F1T	3.62
F1L	4.18

Variant	protein stability index
F1G	3.24
F1H	3.96
F1I	2.08
F1R	3.12
F1A	3.48
F1W	1.14
F1K	3.83
F1P	2.9
F1N	3.67
F1Y	3.21
F1C	3.1
L4W	1.21
L4D	2.22
L4T	3.35
L4I	1.79
L4R	1.97
L4H	1.52
L4M	2.15
L4K	1.8
L4Q	1.35
L4E	2.17
L4N	1.43
V2R	3.34
V2S	1.65
V2F	1.75

Variant	protein stability index
V2L	1.67
V2W	1.33
V2P	2.47
V2Y	2.31
V2A	2.37
V2M	2.3
V2Q	1.17
V2I	1.51
V2E	3.95
V2T	1.68
V2N	3.06
V2G	1.75
V2K	3.83
V2D	4.19
I18D	1.62
I18L	2.87
I18Y	2.13
I18A	1.82
I18S	1.75
I18H	1.24
I18P	3.43
I18F	2.06
I18R	1.68
